Results as given in the supplement of paper PMC9170038.

System: K4 kissing-loop RNA reporter
Assay: apparent KD of K4 kissing-loop reporter; higher = weaker reporter binding
Settings: Eterna round: R107
Method: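 RNA-MaP round R107: designed RNA switches with theophylline, tryptophan, arginine or FMN aptamers are transcribed on-chip within common flanks. They are titrated with a labelled K4 kissing-loop RNA reporter in RNA-MaP buffer (100 mM Tris pH 7.5, 80 mM KCl, 4 mM MgCl2), without ligand or with the indicated ligand. Median apparent KD per design.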

[1] = input ligand: theophylline 20 uM
[2] = input ligand: tryptophan 2.4 mM
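Further: bound reporter read as fluorescence of individual clusters on recovered sequencing chips by microscopy, with normalized cluster intensities fitted with a binding model.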

Sequence	apparent KD of K4 kissing-loop reporter (input ligand: FMN 200 uM) [nM]	apparent KD of K4 kissing-loop reporter (input ligand: arginine 13.2 mM) [nM]	apparent KD of K4 kissing-loop reporter (input ligand: none) [nM]	apparent KD of K4 kissing-loop reporter [1] [nM]	apparent KD of K4 kissing-loop reporter [2] [nM]
GUGUGACUAGUGAUGUUGGUUGCGUGGGAAGGAGCGCAGUAAAAUGCAGGUAGGUCGCCCGUAUCUCUGAUAAAAGAUUAAUUCA [KL-SSArg-A10]	181	128	158	137	153
UGCACGUAGUGAUGUUACAGCAAGUUUAUGAAGGAUAUGAGGUUAGUCAGAAGGUCAGCCGUCUCGUUGUAAGCACCUUAUCAUU [theeternabot_exclusion_KL_FMN_A_14]	305	144	232	158	155
UAAUCCUAGUGAUCCUUAUCAAGUGGUGGGCGAGGACCGGUACGGCCGCCACUCGAAUAUGCAGUGAUGUUGUAAUCCGGAUAAU [Exclusion - Tryptophan A (Freestyle 9)]	568	741	919	750	440
UAGUGAUGCUAUGUUAGGUUUUUUAGGGAAGGAGCGCCAAAGAAGGCAGGUAGGUCGCCCUAUAUUCCCAGUGAUGUUGGGUAUU [Skye_Ex_AA]	64.8	50.6	74.9	93.6	65.5
ACGCUGUGAAUAACACAGCGAAUAAAUUCGCGAGGACCGGUACGGCCGCCACUCGCUAACUGCGAGUGAUGUUCGAUAAUAAAAU [Mat - Mod of OpenEnded 3 - D13]	176	80.8	172	201	91.1
ACCAUUUUACCGGCAGUAGUGAUGUUACUCCGAGGACCGGUACGGCCGCCACUCGCGAACGUAGGGUCGCGCACUCAAAGAGUGC	100	75.6	106	67	89.7
UGUCAUUGGUCGGCCGCCACUUCAUAAAGAGUGAUGUUCUAAAAGACGGAUCGAAAGAUCUGUCGAAGGACCGGGACCGAUGACU [TrypBS 18 #SwitchBubble #StaticStem]	1410	641	1200	915	279
UUUUACGAGUGAUGUUCGUAUUGUAAUAGUUAGGAUAUCGUUUUUUCGAGAAGGAACUUCGAAGUGAUACGAAAGUAUCGCUUCG [FMN A 10]	138	142	154	143	130
AGACUACUGAUAGGAUAUAACAUCCUAGUCGUAUACCGAAAGGUAUACGAUAUCCUUCUAGUGAUGUUAGAAGGGUCGGUAGUCA [Omei KL FMN B Exc B v10]	113	85.5	103	88.3	98.4
GCCGUAGAUGGAAGGAGCGUGUCAAAGUGAUGUUUUGAUUAACUCCCUACGGGAUAGAUGACACAGGUAGGUCGCCAUCUACGGC	65.2	79.3	86.9	115	65.3
GGUGACAACCAGGAGUGAUGUAUAGAAUAGCGAGGACCGGUACGGCCGCCACUCGUGAAGAGAAAGGAGUGAUGUUCCGUAAUGG [Kazoo C3]	129	126	165	74.2	62.8
AAAAUAAGCCAGUGAUGUUGGUACCCAGAUACCAGCGACGAAAGUCGCCCUUGGCAGCUGUGGACGUACAAAAUAAGUACGUCCU	434	209	315	617	303
AUUAAUAACAGAGGAUAUGCAUUUUUAUUAUUUUUUAUUAUUAUAUGCAGUGAUGUUGCAUAUUAAGCAGAAGGCUGAUUUAUUU [JR_SSFMNB_Sub013]	117	105	79	110	102
CCGAGCCUGACGUAAGUCAGGCUCUGCGAGCGAGGACCGGUACGGCCGCCACUCGGUGCAGUGAUGUUGCAUGGCCGCAAGGCCG [#2 Exclusion - Tryptophan A Attempt #23 (HarryS)]	293	274	235	235	351
AACUCUCAGACACCUGAGUGAUGUUCAGGCCGAGGACCGGUACGGCCGCCACUCGGGUCUGAGAGAGGUUAUCAAAGAUAGCCAA [Omei KL Tryp A SS A v3]	675	244	336	304	338
AAGCAGUCACUCUAAGCCAUCGAAGAUGGACGAGGACCGGUACGGCCGCCACUCGGAGUGAUGUUCCGAAGACUGCAAAAUAAAA	379	402	466	396	399
UCUUAACUAAAAUAAUGGGAUACCAGUGAUACCAGCCAUAUGCAGGGCCCUUGGCAGCACCCUUGGCAGCCUCGAGUGAUGUUCG [KL-SSTheo-A7 #DoubleAptamer]	283	292	315	247	230
CUCGUGGGUUUGGGAGGGCUUGUGGGAAGAUAGGAUAUCUAGGGAGGGAGAAGGAUCUAUAGAAUAUAGUGAUGUUAUAUAUGGG [SSFMNA.aA]	118	261	165	230	106
AAUAAAAUCACGGCCGCCACUGAUUUUUUUAUUAGGAGUGAUGUUCCUUUGUCUAUAUACCUUAACAGGACCGGGUGAAUAUUUA [JR_SSTryptoB_Sub022]	54.3	93.4	67.4	95.5	52.1
GAUUCAGUGAUGUUGGAAGGCGAGCGGGAUACCAGCCGAGACUCAGGCCCUUGGCAGCCCACAUAUCCCAGGUAGAUAGUCGCUC [Same State - Theophylline A (Freestyle 10)]	343	266	325	383	265
UGCAUGCGUAGAGUGAUGUUCUAAGAUGAUACCAGUGCGGAAACGCACCCUUGGCAGCAUCUGACUGCAUGCACGUCGAAAGACG	718	666	826	399	598
CAAAUAUGCGGUAGGUUCAAGCGCUGGGAAGGAGCGCAGAUGACUGCAGGUAGGUCGCCCAGUGAUGUUGGGCUUUCCACCUAUU [Edbeaan]	123	124	132	146	121

Sequence	apparent KD of K4 kissing-loop reporter (input ligand: FMN 200 uM) [nM]	apparent KD of K4 kissing-loop reporter (input ligand: arginine 13.2 mM) [nM]	apparent KD of K4 kissing-loop reporter (input ligand: none) [nM]	apparent KD of K4 kissing-loop reporter [1] [nM]	apparent KD of K4 kissing-loop reporter [2] [nM]
AAUAAAAUCACGGCCGCCACUGAUGCUAAUAUUAGCAGUGAUGUUGCUAUGUAUAUUUUAUUUAACAGGACCGGGUGAAUAUUUA [JR_ExcTryptoB_Sub014]	225	184	228	212	133
CCCGGUCCACGAAGGAGCGCCGUGCAGUGAUGUUGCAGUUAGAUCCAGUGAUGUUUGGGCCGGCAGGUAGGUCGCGUGGCCCGGG [Excusion Arginine B GF 24]	199	197	250	197	188
AGUAGUUGGACGGCCGCCACUAGAACAGCUUUGCCAAAGGCAGAGCACUAGAGUGAUGUUCUAGCUAGGACCGGGUCCAACUACA [Omei KL Tryp B SS A v1]	902	306	54.2	118	1000
AUUCUAUUGUGAAGGAGCGCGUAUAGUAGUGAUGUUACUAUAAUAAUAGAUAUUUAAUUCUCGCAGGUAGGUCGCACAAUAUAUA [JR_Nu_ExcArginiB_Sub025]	102	82.6	96.3	85.6	92
UCCUCGAAUCGACCUCGAAAGAGGAUGGAUACCAGUCUUGAUAAAGACCCUUGGCAGCCAGUGAUGUUGGAACGAGGUAAAUAAA [#SwitchBubble 19 #K4Late]	531	365	571	535	359
GCAGUGAUGUUGCGCGGGUACAGUGGAGUGCGAGGACCGGUACGGCCGCCACUCGUACAGAACUGGCUAAUAUAUGGAUAGGUGA [VII]	271	169	305	169	210
AGGCGGCAAGAUUGAUUGGAAAGUAAUCGACGAGGACCGGUACGGCCGCCACUCGAACACCAGUGAUGUUGGUCUGGCUUAAGCC [Exclusion Tryptophan A GF 20]	430	369	435	477	363
AGGCGCUUAAGUCAGUGAUGUUGAUUAUAUCGAGGACCGGUACGGCCGCCACUCGGCUUUCAUCCGCCAUCGUAGUCCUAAAACC [theeternabot_sameState_KL_Trp_A_25]	498	490	559	534	549
GGGAACUCUUACGAUACCAGCCGGAGUGAUGUUCCGUGCUUGGACGUAGUAACCCGCACCGGCCCUUGGCAGCGUGGAUCUUGUG [Esgeonin]	80.6	65.5	78.1	73.2	83.5
AAGUGUGUGGCGGCCGCCACUAGUCUCCAGUGAUGUUGGAGAUAUCACGUAAGUGAUAUCCGACAUAGGACCGGGCCAUAUAGAA [Same State - Tryptophan B (Freestyle 21)]	601	318	688	556	474
UGUCAUUGGUCGGCCGCCACUUCAUAAAGAGUGAUGUUCUUAAAGACGGAUCGAAAGAUCUGUCGAAGGACCGGGACCGAUGACU [FiskerMod 8 - Jieux - Same State - Tryptophan B]	1330	1080	1500	927	196
GGUGACGGCCAGGAGUGAUGUAUAGAAUAGCGAGGACCGGUACGGCCGCCACUCGUGAAGAAAAGGGAGUGAUGUUCCGUAAUGU [Kazoo]	87.8	122	75.3	126	49.5
UUUCUACCGGGAAGGAGCGUGAAUGAUAAUGGAUAUAGUGAUGUUAUAUAUACGAACGAAUCGCAGGUAGGUCGCCCGGAUCACU [SSArgB.U]	655	859	1470	1480	1090
AAGCAGUCACUCAAAGCCAUCGAAGAUGGUCGAGGACCGGUACGGCCGCCACUCGGAGUGAUGUUCCGAAGACUGCAAAAUAAAA	407	394	424	411	346
AAGAGCUAGGCGGCCGCCACUAGUUGUGAACACAUACAAGCCAGUGAUGUUGGUAUGGUGGACGGUAGGACCGGGCCUAGCUGAA [Exclusion - Tryptophan B (Freestyle 16)]	180	229	224	259	283
UUUGGUUUCUCGGCCGCCACUCGUUGGUUAUGGGCUUCAGGGAUAUAGUGAUGUUAUGUAUAGAAGAGGACCGGGAGAAGGAAGG [ExTryptoB.Dq]	195	245	288	186	269
GAAAGAAAGUAUGAUACCAGACACCCGAGUGAUGUUCGGAGCAGUGUGAUGUUCUUUUAAGUCCCUUGGCAGCAUAAAAGAAAAG [whbob_SS_Theo_B_sa84]	122	142	126	101	91.7
AGGGUUUAACACGAUACCAGCCUGGAGGCCAGUGAUGUUGGCCGAUUUGAACAGAAUUAAGGCCCUUGGCAGCGUCUUUAAAACC [Biarat]	143	152	167	165	153
UGAUACCAGACUGAUACCAGCGAGUGAUGUUUGCUGAUCUAAAGCAGUCAAAGACUGCCUUGCCCUUGGCAGCAGUCUGGUAUCU [TheoBX 26 #SwitchBubble #StaticStem]	294	235	275	351	264
GGCAGAGUGAUGUUCGCCCUUUACCUUGAUACCAGUUCAUCUCAAAACCCUUGGCAGCAAGUGUGUAAGAGCGGUAUUGGUCAAU [theeternabot_exclusion_KL_Theo_A_1]	356	306	388	359	339
UGAUAGGACAGAAGGAGCGGCAGUGAUGUUGCCAAAAGGAUAAGGUGUCAAAAGACACCCUGCCAGGUAGGUCGCUGUCCUAUCU	179	366	259	298	208
